Experimental data: patent US20190024103

How the values were obtained:
Experiment in all cases: cell_activity
Details in all cases: TALEN pair
[1] = tested on: GmFAD3_T03 TALEN right monomer (synthetic)
[2] = tested on: GmFAD3_T02 TALEN right monomer (synthetic)
[3] = tested on: GmFAD3_T01 TALEN right monomer (synthetic)
[4] = tested on: GmFAD3_T03 TALEN left monomer (synthetic)
[5] = tested on: GmFAD3_T01 TALEN left monomer (synthetic)
[6] = tested on: GmFAD3_T02 TALEN left monomer (synthetic)
[7] = soybean protoplasts, text p95 gives 2.39

## ACAAAATCATGGACAC (double strand) [FAD3A_T03 right]
[1]; [7]
  activity: 4.4 % NHEJ

## ACTCAATTCTTGTGCC (double strand) [FAD3A_T02 right]
[2]; soybean protoplasts
  activity: 14.5 % NHEJ

## AGGAAGCTTTTCAGAC (double strand) [FAD3A_T01 right]
[3]; soybean protoplasts
  activity: 10.2 % NHEJ

## ATGGTTAAAGACACAAAGCCTTTAGCCTATGCTGCCAATAATGGATACCAACAAAAGGGTTCTTCTTTTGATTTTGATCCTAGCGCTCCTCCACCGTTTAAGATTGCAGAAATCAGAGCTTCAATACCAAAACATTGCTGGGTCAAGAATCCATGGAGATCCCTCAGTTATGTTCTCAGGGATGTGCTTGTAATTGCTGCATTGGTGGCTGCAGCAATTCACTTCGACAACTGGCTTCTCTGGCTAATCTATTGCCCCATTCAAGGCACAATGTTCTGGGCTCTCTTTGTTCTTGGACATGATTGGTAATAATTTTTGTGTTTCTTACTCTTTTTTTTTTTTTTTTGTTTATGATATGAATCTCACACATTGTTCTGTTATGTCATTTCTTCTTCATTTGGCTTTAGACAACTTAAATTTGAGATCTTTATTATGTTTTTGCTTATATGGTAAAGTGATTCTTCATTATTTCATTCTTCATTGATTGAATTGAACAGTGGCCATGGAAGCTTTTCAGATAGCCCTTTGCTGAATAGCCTGGTGGGACACATCTTGCATTCCTCAATTCTTGTGCCATACCATGGATGGTTAGTTCATACTGGCTTTTTTGTTTGTTCATTTGTCATTGAAAAAAAATCTTTTGTTGATTCAATTATTTTTATAGTGTGTTTGGAAGCCCGTTTGAGAAAATAAGAAATCGCATCTGGAATGTGAAAGTTATAACTATTTAGCTTCATCTGTCGTTGCAAGTTCTTTTATTGGTTAAATTTTTATAGCGTGCTAGGAAACCCATTCGAGAAAATAAGAAATCACATCTGGAATGTGAAAGTTATAACTGTTAGCTTCTGAGTAAACGTGGAAAAACCACATTTTGGATTTGGAACCAAATTTTATTTGATAAATGACAACCAAATTGATTTTGATGGATTTTGCAGGAGAATTAGCCACAGAACTCACCATCAAAACCATGGACACATTGAGAAGGATGAGTCATGGGTTCCA (double strand) [FAD3B gene]
[1]; FAD3B off-target
  activity: 2.39 % NHEJ
[4]; FAD3B off-target
  activity: 2.39 % NHEJ
[3]; FAD3B off-target
  activity: 1.48 % NHEJ
[5]; FAD3B off-target
  activity: 1.48 % NHEJ

## ATGGTTCAAGCACAGCCTCTACAACATGTTGGTAATGGTGCAGGGAAAGAAGATCAAGCTTATTTTGATCCAAGTGCTCCACCACCCTTCAAGATTGCAAATATCAGAGCAGCAATTCCAAAACATTGCTGGGAGAAGAACACATTGAGATCTCTGAGTTATGTTCTGAGGGATGTGTTGGTAGTGACTGCATTGGTAGCTGCAGCAATCGGCTTCAATAGCTGGTTCTTCTGGCCACTCTATTGGCCTGCACAAGGCACAATGTTTTGGGCACTTTTTGTTCTTGGACATGATTGGTAACTAATTATTATTACAAATTGTTATGTTATGTTATGTTATGTTGTTGTGCCTTTTTCTCAGTGATGCTTTAGTCATTTCATTTCACTTGGTTATGCATGATTGTTCGTTCATATGTTCTGTCATGGTGAGTTCTAATTTGATTGATGCATGGAACAGTGGTCATGGAAGTTTTTCAAACAGTCCTTTGTTGAACAGCATTGTGGGCCACATCTTGCACTCTTCAATTCTTGTACCATACCATGGATGGTCGGTTCCTTTTAGCAACTTTTCATGTTCACTTTGTCCTTAAATTTTTTTTTATGTTTGTTAAAAAATCTTTGGTCTGATTTAACAACCTAACCATTTTTACAACTCATGGATTTTTTGCAGGAGAATTAGCCACAGGACTCACCATCAGAACCATGGCCATGTTGAGAAGGATGAATCATGGGTTCCG (double strand) [FAD3C gene]
[1]; FAD3C off-target
  activity: 0.17 % NHEJ
[6]; FAD3C off-target
  activity: 0.01 % NHEJ
[4]; FAD3C off-target
  activity: 0.17 % NHEJ
[2]; FAD3C off-target
  activity: 0.01 % NHEJ
[3]; FAD3C off-target
  activity: 0.04 % NHEJ
[5]; FAD3C off-target
  activity: 0.04 % NHEJ

## CCTCAATTCTTGTGCC (double strand) [FAD3B T02 right site]
[2]; FAD3B off-target
  activity: 8.81 % NHEJ

## CTAAATAGCCTGGTGT (double strand) [FAD3A_T02 left]
[6]; soybean protoplasts
  activity: 14.5 % NHEJ

## CTGAATAGCCTGGTGG (double strand) [FAD3B T02 left site]
[6]; FAD3B off-target
  activity: 8.81 % NHEJ

## TCATTCTTCACATTGT (double strand) [FAD3A_T01 left]
[5]; soybean protoplasts
  activity: 10.2 % NHEJ

## TTTGCAGGAGAATTAT (double strand) [FAD3A_T03 left]
[4]; [7]
  activity: 4.4 % NHEJ
